Legend:
[1] = tested on: NCI-H929 (BCMA+) cells and K562 (BCMA −) cells; assay: In vitro cytotoxicity assay, Example B2, statements across all cell lines; type: cell-based, human; conditions: regardless of BCMA expression level; read-out: average EC50, inhibition of cell proliferation across all cell lines
Procedure: The in vitro efficacies of ADCs anti-BCMA-Compound 50, anti-BCMA-Compound 51, anti-BCMA-Compound 52, and anti-BCMA-Compound 53, were compared to anti-BCMA-Compound 3. Anti-BCMA-AB1 clone was conjugated with compounds 50, 51, 52, 53 or 3 and the ADCs were evaluated using the following human cancer cell lines: BCMA-negative K562 and BCMA-positive NCI-H929, purchased from the American Type Culture Collection (ATCC; Manassas, VA). […]
The in vitro assays were performed as follows: All cells were harvested by removal of a portion of the cell culture suspension followed by centrifugation at 300 g for 5 minutes, followed by resuspension in cell culture medium (described above in Cell Culture method), viable cell count (as described above in Cell Culture method), and then seeded into 384-well white wall clear bottom plates (Catalog #3765, Corning) at a density of 2,500 cells/well in growth media. […] After treatment, cell viability was determined by CellTiter-Glo 2.0 assay (Catalog #G9243; Promega; Madison, WI, USA) based on the manufacturer's instructions. CellTiter Glo reagent reacts with ATP in metabolically active cells to give a luminescent readout that is directly proportional to the number of viable cells. […] Luminescence was measured using a Tecan Spark microplate reader (Tecan; Mannedorf, Switzerland). […]

BCMA-positive NCI-H929 = assay: In vitro cytotoxicity assay (CellTiter-Glo 2.0, 384-well), Example B2; type: cell-based, human
Procedure: (§1) The in vitro efficacies of ADCs anti-BCMA-Compound 50, anti-BCMA-Compound 51, anti-BCMA-Compound 52, and anti-BCMA-Compound 53, were compared to anti-BCMA-Compound 3. Anti-BCMA-AB1 clone was conjugated with compounds 50, 51, 52, 53 or 3 and the ADCs were evaluated using the following human cancer cell lines: BCMA-negative K562 and BCMA-positive NCI-H929, purchased from the American Type Culture Collection (ATCC; Manassas, VA).
(§2) Cell Culture Method: The cell lines were cultured in RPMI-1640 medium (Catalog #10-041-CV: Corning) supplemented with 10-20% fetal bovine serum (FBS; Catalog #MT35011CV; Corning) and 1× penicillin-streptomycin (Catalog #30-002-Cl, Corning) and maintained at 37° C. in a 5% C02 humidified environment. Viable cell counts were made by Trypan blue exclusion using a Countess or Countess II automated cell counter.
(§3) The in vitro assays were performed as follows: All cells were harvested by removal of a portion of the cell culture suspension followed by centrifugation at 300 g for 5 minutes, followed by resuspension in cell culture medium (described above in Cell Culture method), viable cell count (as described above in Cell Culture method), and then seeded into 384-well white wall clear bottom plates (Catalog #3765, Corning) at a density of 2,500 cells/well in growth media. Plates were maintained at 37° C. The outer wells of plates contained medium only and were used for background subtraction for the cell viability assay. Working solutions of test articles were prepared at 2× final concentrations with 5-fold serial dilutions in complete growth medium. Cell treatment was performed in either technical triplicates or duplicates and maintained at 37° C. for 120-hour assay. After treatment, cell viability was determined by CellTiter-Glo 2.0 assay (Catalog #G9243; Promega; Madison, WI, USA) based on the manufacturer's instructions. CellTiter Glo reagent reacts with ATP in metabolically active cells to give a luminescent readout that is directly proportional to the number of viable cells. Briefly, plates were removed from the incubator and equilibrated to room temperature before addition of CellTiter Glo reagent. Luminescence was measured using a Tecan Spark microplate reader (Tecan; Mannedorf, Switzerland).
(§4) Data Analysis: For Cytotoxicity assays, raw luminescence data was background subtracted with average luminescence from the outer wells containing medium only and normalized to untreated controls using Excel (Microsoft; Albuquerque, NM). Dose-response relationships and EC50 values were determined based on non-linear regression analysis of normalized data fit to a four-parameter logistic equation using GraphPad Prism 8.0.

BCMA-negative K562 = assay: as above; type: cell-based, human
Procedure: as §1, §2, §3, §4

K562 (BCMA −) cells = assay: In vitro cell viability assay (Cell Titer-Glo 2.0), Example B1; type: cell-based, human; conditions: Table 4; 5-day assays; AB1 clone; read-out: EC50 Values, Cell Line K562
Procedure: (§5) The in vitro efficacies of ADCs anti-BCMA-Compound 1, anti-BCMA-Compound 2, anti-BCMA-Compound 3, anti-BCMA-Compound 4, anti-BCMA-Compound 5, anti-BCMA-Compound 6, anti-BCMA-Compound 7, and anti-BCMA-Compound 8, were evaluated using the following human cancer cell lines: K562, MM.1R and NCI-H929, purchased from the American Type Culture Collection (ATCC; Manassas, VA). The cells were cultured in RPMI-1640 medium (Gibco ThermoFisher; Waltham, MA) supplemented with 10% heat-inactivated fetal bovine serum (FBS: Corning; Corning, NY, USA) and 1× penicillin-streptomycin (Corning) and maintained at 37° C. in a 5% CO2 humidified environment.
(§6) The in vitro assays were performed as follows: Tumor cells were harvested by centrifugation at 300 g for 5 minutes and plated into 96-well clear bottom white-walled plates (5,000 to 10,000 cells/well in 50 μL complete medium) and maintained at 37° C. Cells were then treated in duplicate with 50 μL of test articles prepared at 2× final concentration that were serially diluted in complete medium and incubated at 37° C. for up to 120 hrs. After treatment, inhibition of cancer cell growth was determined using the Cell Titer-Glo® 2.0 Cell Viability Assay (Promega; Madison, WI, USA) as described by the manufacturers' protocol. Luminescence was measured using a Perkin-Elmer Envision 2104 Microplate Reader (Waltham, MA).
Data were normalized to non-treated controls using Microsoft Excel (Redmond, WA, USA) and analyzed using GraphPad Prism software (version 8; La Jolla, CA, USA). Half-maximal effective concentrations (EC50) were derived from dose response curves were generated using non-linear regression analysis fit to a 4-parameter logistic equation.

OPM2 tumor xenograft = assay: In vivo efficacy, OPM2 tumor xenograft in SCID beige mice; set-up: species or system CB17 SCID beige mice; conditions: Experiment II, FIG. 4
Procedure: (§7) Female CB17 SCID beige mice, 6 weeks of age, were purchased from Charles River Laboratories.
(§8) Human multiple myeloma tumor cell lines NCI-H929 and OPM2 were cultured and expanded in RPMI 1640 medium supplemented with 10% FBS, 100 units/ml of penicillin and 100 μg/ml of streptomycin at 37° C. in a 5% CO2 humidified environment for a period of 2-3 weeks before harvesting for implantation. Cell viability determined by Trypan blue dye exclusion assay was >90% before implantation. 5 million of OPM2 or NCI-H929 cells in 100 μl of PBS—Matrigel 1:1 (v/v) mixture were inoculated to the right upper flank of each mouse by s.c. injection.
(§9) Tumor volume measurement was started at day 14 after tumor cell inoculation and performed twice weekly. The longest longitudinal diameter as length and the widest transverse diameter as width were measured by using a digital caliper. Tumor volume (TV) were then calculated by the formula: TV=[length×(width)^2]/2 and were analyzed in Excel.
(§10) The treatment was started when average tumor size reaches ˜400, 200 and 150 mm^3 for NCI-H929 tumor xenografts in Experiment I, III and IV, respectively, or ˜240 mm^3 for OPM2 tumor xenograft in Experiment I.
Mice were euthanized when tumor size reached 2000 mm^3. […]
Raw data of tumor measurements were analyzed in Excel. […]

K562, MM.1R and NCI-H929 = assay: In vitro cell viability assay, Example B1, statements over several cell lines; type: cell-based, human; conditions: AB1 clone versus AB2 clone ADCs
Procedure: as §5
as §6, with “Cells were then treated in duplicate with 50 μL of test articles prepared at 2× final concentration that were serially diluted in complete medium and incubated at 37° C. for up to 120 hrs.” left out
Data were normalized to non-treated controls using Microsoft Excel (Redmond, WA, USA) and analyzed using GraphPad Prism software (version 8; La Jolla, CA, USA). […]

NCI-H929 tumor xenograft = assay: In vivo efficacy, NCI-H929 tumor xenograft in SCID beige mice; set-up: species or system CB17 SCID beige mice; conditions: for tumor growth: i.p.
Procedure: as §7, §8, §9, §10
Mice were euthanized when tumor size reached 2000 mm^3.
After tumor-bearing mice were randomized, anti-BCMA antibody (BCMA-AB1 or BCMA-AB2), anti-BCMA antibody conjugate with Compound 3 (BCMA-AB1-3 or BCMA-AB2-3) or iso-type antibody conjugate with Compound 3 (iso-3) diluted in PBS were administered to mice through i.p. injections. Treatment regimens included 8 mg/kg once, 4 mg/kg Q1W×2 and 2 mg/kg biw×4 of anti-BCMA-AB1 or anti-BCMA-AB1-Compound 3 in Experiment I (FIG. 3); 2 mg/kg biw×4 and 0.67 mg/kg biw×4 of anti-BCMA-AB1 or anti-BCMA-AB1-Compound 3 in Experiment II (FIG. 4); 1, 2, 4, and 8 mg/kg once of anti-BCMA-AB1-Compound 3 or iso-3 in Experiment III (FIG. 5); and 4 mg/kg biw×4 of anti-BCMA-AB2 or 2 and 4 mg/kg biw×4 of anti-BCMA-AB2-Compound 3 in Experiment IV (FIG. 6).
Raw data of tumor measurements were analyzed in Excel. Tumor growth curves were plotted using GraphPad Prism 8.0 software and values were presented as mean t SEM.

[2] = Table 7, 120-hour (5-day) assay, AB1 clone

CC[C@H](C)[C@@H]([C@@H](CC(=O)N1CCC[C@H]1[C@H](OC)[C@@H](C)C(=O)N[C@H](CN=[N+]=[N-])Cc1ccc(NC(C)C)cc1)OC)N(C)C(=O)[C@@H](NC(=O)[C@H](C(C)C)N(C)C)C(C)C [D3, reference compound]
EC50 [1]: 0.88 to 1.53 nM
EC50 (BCMA-positive NCI-H929; [2]): 1.08 nM
EC50 (BCMA-negative K562; [2]): 1.52 nM

B1: BCMA-AB1-3: Compound 3 conjugated with anti-BCMA antibody clone BCA7-2C5 (AB1) (conjugate)
VH: EVQLVESGGGLVKPGGSLRLSCAASGFTSSTAWMSWVRQAPGKGLEWVGRIKSKSDGGTTDYAAPVKGRFTISRDDSKNTLFLQMNSLKTEDTAVYYCAKGGGTYGYWGQGTTVTVSS
VL: QSVLTQPASVSGSPGQSVTISCTGTSSAHGGHYYVSWYQQHPGKAPKLMIYDVSNRPSGVSNRFSGSKSGNTASLTISGLQAEDEADYYCGSYTSSGSYVFGTGTKLTVL
EC50 (K562 (BCMA −) cells): > 100 nM
tumor regression / elimination (OPM2 tumor xenograft; high-dose regimen): induced dramatic and prolonged tumor regressions and eliminated all tumors in about two weeks after initial treatments
tumor growth (OPM2 tumor xenograft; i.p., 2 mg/kg biw×4 and 0.67 mg/kg biw×4): significantly and dose-dependently inhibited tumor growth
relative potency, comparison of Table 5 and Table 6 (K562, MM.1R and NCI-H929): most potent
tumor regression / elimination (NCI-H929 tumor xenograft; Experiment I, FIG. 3, all regimens): induced dramatic and prolonged tumor regressions and eliminated all tumors in about two weeks after initial treatments
tumor growth (NCI-H929 tumor xenograft; Experiment I, FIG. 3, 8 mg/kg once, 4 mg/kg Q1W×2, 2 mg/kg biw×4, start ~400 mm^3): significantly inhibited tumor growth
tumor regression / elimination (NCI-H929 tumor xenograft; Experiment III, FIG. 5, high doses): induced dramatic and prolonged tumor regressions and eliminated all tumors in about two weeks after initial treatments
tumor growth (NCI-H929 tumor xenograft; Experiment III, FIG. 5, 1, 2, 4, and 8 mg/kg once): significantly inhibited tumor growth in a dose-dependent manner
effect on NCI-H929 cell viability (BCMA-positive NCI-H929; 5-day assays, FIG. 8): dose-dependently reduced
activity against K562 cells (BCMA-negative K562; 5-day assays, FIG. 8): did not show activity
